According to the supplement of paper PMC11246515:
± gives the standard deviation of the averaged measurements.

Assay: total protein half-life in vivo (active degradation + dilution); higher = more stable protein
[1] = E. coli NCM3722 delta-clpP delta-lon delta-hslV, growth: N-lim chemostat, doubling time 6 h
[2] = wild type E. coli NCM3722, growth: C-lim chemostat, doubling time 3 h
[3] = E. coli NCM3722 delta-clpP, growth: N-lim chemostat, doubling time 6 h
[4] = E. coli NCM3722 delta-hslV, growth: N-lim chemostat, doubling time 6 h
[5] = E. coli NCM3722 delta-lon, growth: N-lim chemostat, doubling time 6 h
[6] = E. coli NCM3722 delta-smpB, growth: N-lim chemostat, doubling time 6 h
[7] = wild type E. coli NCM3722, growth: C-lim chemostat, doubling time 6 h
[8] = wild type E. coli NCM3722, growth: C-lim chemostat, doubling time 12 h
[9] = wild type E. coli NCM3722, growth: N-lim chemostat, doubling time 6 h
[10] = wild type E. coli NCM3722, growth: N-lim chemostat, doubling time 12 h
[11] = wild type E. coli NCM3722, growth: P-lim chemostat, doubling time 6 h
[12] = wild type E. coli NCM3722, growth: P-lim chemostat, doubling time 12 h

Row | Sequence | total protein half-life in vivo [1] [h] | total protein half-life in vivo [2] [h] | total protein half-life in vivo [3] [h] | total protein half-life in vivo [4] [h] | total protein half-life in vivo [5] [h] | total protein half-life in vivo [6] [h] | total protein half-life in vivo [7] [h] | total protein half-life in vivo [8] [h] | total protein half-life in vivo [9] [h] | total protein half-life in vivo [10] [h] | total protein half-life in vivo [11] [h] | total protein half-life in vivo [12] [h]
1 | MDLSLLKALSEADAIASSEQEVRQILLEEADRLQKEVRFDGLGSVLIRLNESTGPKVMICAHMDEVGFMVRSISREGAIDVLPVGNVRMAARQLQPVRITTREECKIPGLLDGDRQGNDVSAMRVDIGARSYDEVMQAGIRPGDRVTFDTTFQVLPHQRVMGKAFDDRLGCYLLVTLLRELHDAELPAEVWLVASSSEEVGLRGGQTATRAVSPDVAIVLDTACWAKNFDYGAANHRQIGNGPMLVLSDKSLIAPPKLTAWVETVAAEIGVPLQADMFSNGGTDGGAVHLTGTGVPTVVMGPATRHGHCAASIADCRDILQMQQLLSALIQRLTRETVVQLTDFR | 5.79 | 2.18 | – | – | – | – | – | – | – | – | – | –
2 | MSKLLDRFRYFKQKGETFADGHGQVMHSNRDWEDSYRQRWQFDKIVRSTHGVNCTGSCSWKIYVKNGLVTWEIQQTDYPRTRPDLPNHEPRGCPRGASYSWYLYSANRLKYPLIRKRLIELWREALKQHSDPVLAWASIMNDPQKCLSYKQVRGRGGFIRSNWQELNQLIAAANVWTIKTYGPDRVAGFSPIPAMSMVSYAAGTRYLSLLGGTCLSFYDWYCDLPPASPMTWGEQTDVPESADWYNSSYIIAWGSNVPQTRTPDAHFFTEVRYKGTKTIAITPDYSEVAKLCDQWLAPKQGTDSALAMAMGHVILKEFHLDNPSDYFINYCRRYSDMPMLVMLEPRDDGSYVPGRMIRASDLVDGLGESNNPQWKTVAVNTAGELVVPNGSIGFRWGEKGKWNLESIAAGTETELSLTLLGQHDAVAGVAFPYFGGIENPHFRSVKHNPVLVRQLPVKNLTLVDGNTCPVVSVYDLVLANYGLDRGLEDENSAKDYAEIKPYTPAWGEQITGVPRQYIETIAREFADTAHKTHGRSMIILGAGVNHWYHMDMNYRGMINMLIFCGCVGQSGGGWAHYVGQEKLRPQTGWLPLAFALDWNRPPRQMNSTSFFYNHSSQWRYEKVSAQELLSPLADASKYSGHLIDFNVRAERMGWLPSAPQLGRNPLGIKAEADKAGLSPTEFTAQALKSGDLRMACEQPDSSSNHPRNLFVWRSNLLGSSGKGHEYMQKYLLGTESGIQGEELGASDGIKPEEVEWQTAAIEGKLDLLVTLDFRMSSTCLFSDIVLPTATWYEKDDMNTSDMHPFIHPLSAAVDPAWESRSDWEIYKGIAKAFSQVCVGHLGKETDVVLQPLLHDSPAELSQPCEVLDWRKGECDLIPGKTAPNIVAVERDYPATYERFTSLGPLMDKLGNGGKGISWNTQDEIDFLGKLNYTKRDGPAQGRPLIDTAIDASEVILALAPETNGHVAVKAWQALGEITGREHTHLALHKEDEKIRFRDIQAQPRKIISSPTWSGLESDHVSYNAGYTNVHELIPWRTLSGRQQLYQDHPWMRAFGESLVAYRPPIDTRSVSEMRQIPPNGFPEKALNFLTPHQKWGIHSTYSENLLMLTLSRGGPIVWISETDARELTIVDNDWVEVFNANGALTARAVVSQRVPPGMTMMYHAQERIMNIPGSEVTGMRGGIHNSVTRVCPKPTHMIGGYAQLAWGFNYYGTVGSNRDEFIMIRKMKNVNWLDDEGRDQVQEAKK | 6.1 ± 1 | 2.8 ± 0.2 | 5.33 ± 0.2 | 6.53 ± 0.28 | 6.11 ± 1.5 | 5.8 ± 0.67 | 6.25 ± 1.3 | 11.5 ± 1.3 | 5.956 ± 0.043 | 12.43 ± 0.018 | 5.7 ± 0.32 | 11.4 ± 0.43
3 | MQKREPVIIAPDYTDDELYEWMRQKINAAQDLKWANEARAKQAENLSALEQDITNLEKAAALSIARMITYPR | – | 3.16 | – | – | – | – | – | – | – | – | – | –
4 | MSGQGKRLMVMAGGTGGHVFPGLAVAHHLMAQGWQVRWLGTADRMEADLVPKHGIEIDFIRISGLRGKGIKALIAAPLRIFNAWRQARAIMKAYKPDVVLGMGGYVSGPGGLAAWSLGIPVVLHEQNGIAGLTNKWLAKIATKVMQAFPGAFPNAEVVGNPVRTDVLALPLPQQRLAGREGPVRVLVVGGSQGARILNQTMPQVAAKLGDSVTIWHQSGKGSQQSVEQAYAEAGQPQHKVTEFIDDMAAAYAWADVVVCRSGALTVSEIAAAGLPALFVPFQHKDRQQYWNALPLEKAGAAKIIEQPQLSVDAVANTLAGWSRETLLTMAERARAASIPDATERVANEVSRVARA | 5.45 ± 0.24 | 3.02 ± 0.13 | 6.19 ± 0.33 | 6.2 ± 0.14 | 6.36 ± 0.52 | 6.16 ± 0.19 | 6.82 ± 0.71 | 10.9 ± 0.94 | 6.21 ± 0.43 | 12.6 ± 0.14 | 6.05 ± 0.2 | 11.6 ± 0.54
5 | MSQVSTEFIPTRIAILTVSNRRGEEDDTSGHYLRDSAQEAGHHVVDKAIVKENRYAIRAQVSAWIASDDVQVVLITGGTGLTEGDQAPEALLPLFDREVEGFGEVFRMLSFEEIGTSTLQSRAVAGVANKTLIFAMPGSTKACRTAWENIIAPQLDARTRPCNFHPHLKK [P0AEZ9] | 5.88 ± 0.086 | 3.17 ± 0.28 | 5.83 ± 0.34 | 5.23 ± 0.43 | 5.076 ± 0.019 | 4.7 ± 0.21 | 5.99 ± 0.53 | 10.3 ± 1.4 | 4.7 ± 0.53 | 8.21 ± 0.61 | 6.07 ± 0.18 | 13.4 ± 0.48
6 | METVAYADFARLEMRVGKIVEVKRHENADKLYIVQVDVGQKTLQTVTSLVPYYSEEELMGKTVVVLCNLQKAKMRGETSECMLLCAETDDGSESVLLTPERMMPAGVRVV | 5.14 ± 0.11 | 2.97 ± 0.48 | 5.33 | – | – | – | 4.74 ± 0.58 | 8.53 ± 0.87 | – | – | – | –
7 | MKRLRNKMTTEELAECLGVAKQTVNRWIREKGWKTEKFPGVKGGRARLILVDTQVCEFIQNTPAFHNTPMLMEAEERIAEYAPGARAPAYRQIINAIDNMTDIEQEKVAQFLSREGIRNFLARLDIDESA | 6.16 ± 0.29 | 2.58 ± 0.081 | – | – | – | – | 4.56 | 7.65 ± 1 | – | 4.62 | – | 4.26
8 | MSDTKRNTIGKFGLLSLTFAAVYSFNNVINNNIELGLASAPMFFLATIFYFIPFCLIIAEFVSLNKNSEAGVYAWVKSSLGGRWAFITAYTYWFVNLFFFTSLLPRVIAYASYAFLGYEYIMTPVATTIISMVLFAFSTWVSTNGAKMLGPITSVTSTLMLLLTLSYILLAGTALVGGVQPADAITVDAMIPNFNWAFLGVTTWIFMAAGGAESVAVYVNDVKGGSKSFVKVIILAGIFIGVLYSVSSVLINVFVSSKELKFTGGSVQVFHGMAAYFGLPEALMNRFVGLVSFTAMFGSLLMWTATPVKIFFSEIPEGIFGKKTVELNENGVPARAAWIQFLIVIPLMIIPMLGSNTVQDLMNTIINMTAAASMLPPLFIMLAYLNLRAKLDHLPRDFRMGSRRTGIIVVSMLIAIFAVGFVASTFPTGANILTIIFYNVGGIVIFLGFAWWKYSKYIKGLTAEERHIEATPASNVD | – | – | – | – | – | – | 3.83 | – | – | – | – | –
9 | MRTISYSEARQNLSATMMKAVEDHAPILITRQNGEACVLMSLEEYNSLEETAYLLRSPANARRLMDSIDSLKSGKGTEKDIIE | 2.74 | > 4 | 2 ± 0.78 | 2.66 ± 0.31 | – | 3.15 | 1.57 ± 0.23 | 2.2 ± 1.2 | 1.8 | 2.86 ± 0.17 | 1.67 | 3.61 ± 0.31
